No end group written: not given here.

Experiment [1] concerns the target T1, soluble human insulin receptor-immunoglobulin heavy chain chimera (human, UniProt P06213 28-956, limits assumed).
T1 construct: extracellular domain; also called sIR-Fc; IR (prepared according to Bass et al., 1996); not shown: immunoglobulin heavy chain constant domains (Bass et al., 1996)
Nature of the experiment: phage ELISA.

Experiment [2] addresses T2, soluble IGF-1R (recombinant human IGF-1R extracellular domain, R&D Systems Cat. # 391-GR/CF) (human, UniProt P08069 31-935).
T2 construct: extracellular domain; Bought protein; coated on plates (phage ELISA, TRF) or Eu-labelled (TR-FRET); also called sIGF-1R; rhIGF-1R
The experiment in a line: phage ELISA. (ELISA stands for enzyme-linked immunosorbent assay.)

With HLADGQFHEKFYDWFERQISSRCNDC (on phage) [E2CA-3-E11-IGFR], the ratio over background in experiment [1] came out at 1 ratio.
As for TFYSCLASLLTGTPQPNRGPWERCR (on phage) [20C-3-G3-IGFR], the ratio over background is 1.2 ratio in experiment [1] and 32.3 ratio in experiment [2].
For SSYGCDGFYLMLFSLGLVASQELEC (on phage) [20C-3-A1-IGFR], the figures for the ratio over background in experiment [1] and in experiment [2] were 1.5 ratio and 20.8 ratio, respectively.
Consider YSCGDGFYSLLSDLLGGQFRC (on phage) [20E22-4-H12-IGFR], for which the ratio over background in experiment [1] was determined as 0.8 ratio; in experiment [2], 9.7 ratio.
On to KLHNLMFYYGLQRLVWGAGLG (on phage) [20E23-4-H3-IGFR], for which the ratio over background in experiment [1] came out at 1.1 ratio; in experiment [2] it was 14.8 ratio.
Consider RFSTDGFYQYLLALVGGGPVG (on phage) [20E2B-1-A11-IGFR], for which the ratio over background in experiment [1] was found to be 1 ratio; in experiment [2], 9.5 ratio.
For PGTDLGFYQALRCVVIQGACD (on phage) [20E2B-2-B2-IGFR], the ratio over background in experiment [1] came out at 0.6 ratio; in experiment [2], 4.9 ratio.
As to FYDAIDQLVRGSARAGGTRD (on phage) [R20α-3-20E2-IR], the ratio over background was found to be 3.1 ratio in experiment [1] and 39.9 ratio in experiment [2].
RLFYCGIQALGANLGYSGCV (on phage) [R20α-4-20A12-IR]: the ratio over background in experiment [1] is 2.4 ratio; in experiment [2], 39.9 ratio.
FFYDCLAALLQGVARYHDLCAVEIT (on phage) [20C-4-C7-IGFR]: the ratio over background in experiment [1] stood at 1.3 ratio; in experiment [2], 28 ratio.
For VGYQGQGDENFYDWFIRQVSGRLGVQ (on phage) [H2CA-4-F5-IGFR], the ratio over background in experiment [1] amounted to 0.8 ratio; in experiment [2], 9.7 ratio.
As to RCEEKQAEVGPSSDPFYHKMSELLGCR (on phage) [B6Ha-3-E9-IR], the values for the ratio over background in experiment [1] and in experiment [2] were 1.7 ratio and 24.2 ratio, respectively.
The matching figures for LQPCSGFYECIERLIGVKLSG (not fully specified (bridges); cysteine pairing not given here, on phage) [20E2Bβ-4-G7-IR]: 1.6 ratio and 25.2 ratio.
Consider LGYQEPFQQNFYDWFVRQVSGAENAG (on phage) [H2CA-3-E8-IGFR], for which the ratio over background in experiment [1] is 2.2 ratio; in experiment [2], 6.3 ratio.
Take EAASLGSQDRNFYDWFVRQVV (on phage) [A6S-2-D11-IR]: the ratio over background in experiment [1] came out at 13.5 ratio; in experiment [2], 37.4 ratio.
For GNGDGMFYQLLSLLVGRDMHV (on phage) [20E2B-3-C2-IGFR], the values for the ratio over background in experiment [1] and in experiment [2] were 0.6 ratio and 8.9 ratio, respectively.
Consider GVRAMSFYDALVSVLGLGPSG (on phage) [20E2B-1-A6-IGFR], for which the ratio over background in experiment [1] was determined as 1.1 ratio; in experiment [2], 18.1 ratio.
Take QPDHSYFYSLLQELVGSEERL (on phage) [20E2B-4-F9-IGFR]: in experiment [2], the ratio over background turned out to be 14.7 ratio.
On to AQPCGGFYGLLEQLVGRSVCD (on phage) [20E2B-4-F10-IGFR], for which the ratio over background in experiment [1] was found to be 2.2 ratio; in experiment [2] it was 17.3 ratio.
For RGCNDDGGKGWSDDPFYHKLSELICGG (on phage) [B6Hα-1-A2-IR], the ratio over background in experiment [1] amounted to 1 ratio.
Regarding AICDAGFHEHFYDWFALQVSDCGRQS (on phage) [H2CA-2-B11-IGFR], the IR/IGF-1R ratio comparison in experiment [1] was found to be 0.3 ratio. In addition, the results for the ratio over background in experiment [1] and in experiment [2] were 1.6 ratio and 4.6 ratio, respectively.
Take FRTLAAQHDSFYDWFDRQVSGAAGER (on phage) [H2CA-3-C11-IGFR]: the ratio over background in experiment [1] was 1.6 ratio; in experiment [2], 3.3 ratio.
On to GGTEVDFYRALERLVRGQLGL (on phage) [20E2B-3-D8-IGFR], for which the ratio over background was found to be 1.6 ratio in experiment [1] and 17.7 ratio in experiment [2].
With RGAVAGFHDQFYDWFDRQVSRVHKFG (on phage) [H2CA-4-H9-IGFR], in experiment [2], the ratio over background was 5.6 ratio.
On to GFREGSFYDWFQAQVT (on phage) [E4Dα-2-D11-IR], for which the ratio over background in experiment [1] was 3.3 ratio; in experiment [2], 11.1 ratio.
Consider DRAFYNGLRDLVGAVYGAWD (on phage) [R20α-4-20C11-IR], for which the values for the ratio over background in experiment [1] and in experiment [2] were 3 ratio and 30.8 ratio, respectively.
The matching figures for PVGVQGFYEGLSRLVLGRGGW (on phage) [20E2B-4-F8-IGFR]: 0.8 ratio and 7.3 ratio.
The matching figures for NSRDGGFYLQLERLLGFPVTG (on phage) [20E2B-3-D4-IGFR]: 0.8 ratio and 7.9 ratio.
As to VERSASSQDGNFYDWFVVQIR (on phage) [A6S-2-D1-IR], the ratio over background stood at 12 ratio in experiment [1] and 30.6 ratio in experiment [2].
For RGIVAMVEATEVGSDHDPFYHKLSELVQGS (on phage) [B6Hα-2-C7-IR], the ratio over background in experiment [1] came to 1 ratio.
On to VGRASGFPENFYDWFGRQLSLQSGEQ (on phage) [M2CA-4-H6-IGFR], for which the ratio over background turned out to be 0.7 ratio in experiment [1] and 10.5 ratio in experiment [2].
The matching figures for DRDFCRFYERLTALVGGQVDGGWPC (on phage) [20C-3-F6-IGFR]: 1.9 ratio and 26.1 ratio.
As for GRTMAVMAAGGPDDPFYHKLSELVQGG (on phage) [B6Hα-2-D6-IR], the ratio over background in experiment [1] worked out at 1 ratio.
TSEVQRRSQDNFYDWFVAQVA (on phage) [A6S-3-E2-IR]: the ratio over background in experiment [1] stood at 9.8 ratio; in experiment [2], 24.7 ratio.
For the molecule VEGRGLFYDLLRQLLARRQNG (on phage) [20E2B-3-C6-IGFR], the ratio over background in experiment [1] was 1.1 ratio; in experiment [2], 16.8 ratio.
For YRGMLVLGRSSDGAGKVAFERPARIGQTVFAVNFYDWFV (on phage) [A6L-0-E6-IR], the ratio over background in experiment [1] was found to be 1.8 ratio; in experiment [2], 31 ratio.
The matching figures for RGQSDAFYSGLWALIGLSDG (on phage) [R20β-4-A6-IR]: 1.5 ratio and 25.9 ratio.
As to LRIANLFYQRLWDLAFGGGG (on phage) [20E2B-3-E8-IGFR], the ratio over background in experiment [1] was 1.5 ratio; in experiment [2] it was 16.7 ratio.
The matching figures for SACQFDCHENFYDWFARQVSGGAAYG (on phage) [H2CA-4-E8-IGFR]: 1 ratio and 9.2 ratio.
As for YRGMLVLGRISGGAGKAASERPARIGQKVSAVNFYDWFV (on phage) [A6L-0-E3-IR], the ratio over background in experiment [2] was found to be 26 ratio.
Take SQAGSAFYAWFDQVLRTVHSA (on phage) [20E2Bβ-4-G6-IR]: in experiment [2], the ratio over background amounted to 6.2 ratio.
As for IQQELTFYDLLHRLVRSELGS (on phage) [20E2B-3-D2-IGFR], the figures for the ratio over background in experiment [1] and in experiment [2] were 1.1 ratio and 12.4 ratio, respectively.
Consider PDLHKGFYAQLAQLIRGQLLS (on phage) [20E2B-3-E3-IGFR], for which the ratio over background in experiment [1] turned out to be 1.3 ratio; in experiment [2], 16.3 ratio.
The matching figures for QFYGCLLDLSLGVPSFGWRRRCITA (on phage) [20C-3-A4-IGFR]: 1.2 ratio and 8.8 ratio.
As to QPAPDGFYSALMKLIGRGGVS (on phage) [20E2B-3-C8-IGFR], the figures for the ratio over background in experiment [1] and in experiment [2] were 1.8 ratio and 15.6 ratio, respectively.
Take RGMKEEVLVGGSTDPFYHKLSELLQGS (on phage) [B6Hα-3-F11-IR]: the ratio over background in experiment [1] worked out at 1.6 ratio; in experiment [2], 18.7 ratio.
For QGGSASFYDAIDRLLRMRIGG (on phage) [20E2A-4-F11-IGFR], the ratio over background in experiment [1] turned out to be 1.3 ratio; in experiment [2] it was 18.8 ratio.

Values taken from patent US20040023887A1 (published 2004).
